In experiment [1] the target is T1, ScDmc1 (Saccharomyces cerevisiae Dmc1, wild type) (Saccharomyces cerevisiae) (UniProt P25453).
T1 sequence: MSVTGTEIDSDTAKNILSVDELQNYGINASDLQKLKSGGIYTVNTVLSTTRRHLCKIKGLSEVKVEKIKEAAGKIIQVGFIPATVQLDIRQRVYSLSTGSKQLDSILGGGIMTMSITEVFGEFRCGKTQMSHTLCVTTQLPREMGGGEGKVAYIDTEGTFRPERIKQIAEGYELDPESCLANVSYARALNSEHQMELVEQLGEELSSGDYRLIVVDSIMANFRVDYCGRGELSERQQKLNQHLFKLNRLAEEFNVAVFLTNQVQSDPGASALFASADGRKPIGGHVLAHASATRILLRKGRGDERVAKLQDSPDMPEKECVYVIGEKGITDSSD

Experiment [2] deals with T1, ScDmc1 (Saccharomyces cerevisiae Dmc1, wild type) (Saccharomyces cerevisiae). This is another data set of the same source.
Experiment [3] has the same target. This is another data set of the same source.
The target is the same in experiment [4]. The source holds these as a separate data set.
The target is the same in experiment [5]. The source holds these as a separate data set.
The target is the same in experiment [6]. The source holds these as a separate data set.

B1: ScMei5–Sae3 heterodimer (complex)
chain 1: MHNQEEWLDKDKTLVNEEENTCINHSYTKKDTNNYRVGKSGIKDLKKPTNQKEIAIKNRELTKQLTLLRQENNHLQQACKILSENKIIENRKSIEKWRTICEMELSFILNSTLIKINRMGGYKDFLEKEMEAKKRRLEYQIDNGMEDQICEIKESDDFRQLSEVEKQEWESQMNEQLKELEKKKIAELEKLNKVLHDSEGKDFGMAELCTRLKLDYSLIFPQ
chain 2: MNYLETQLNKKQKQIQEYESMNGNLIKMFEQLSKEKKNDETPKKISSTYIKELKEYNELRDAGLRLAQIIADEKQCKIKDVFEEIGYSMKD
B1: the ssDNA-dependent ATP hydrolysis by Dmc1 (TLC), with versus without Mei5–Sae3, 70 µM Ca2+ in experiment [1] was 2 fold. In experiment [2], this molecule gave a negative-stain EM: average Dmc1 filament length with 2 µM Mei5–Sae3 against the control without it (ATP, 70 µM Ca2+, RPA) of 1.5 fold and a negative-stain EM: share of Dmc1 filaments in the extended (active) form with 2 µM Mei5–Sae3 (ATP, 70 µM Ca2+, RPA; 17% without Mei5–Sae3) of 76%. The molecule also registered a D-loop yield with versus without 0.5 µM Mei5–Sae3 (3 µM Dmc1, 0.2 µM RPA, 70 µM Ca2+, 5 mM Mg2+, ATP) in experiment [3] of 2.5 fold. In experiment [4], the apparent KD of Dmc1 for ssDNA by fluorescence polarisation, fold reduction by 400 nM Mei5–Sae3 (ADP in place of ATP) was 1.5 fold; the apparent KD of Dmc1 for ssDNA by fluorescence polarisation, fold reduction by 400 nM Mei5–Sae3 (AMP–PNP in place of ATP) amounted to 1.5 fold; the apparent KD of Dmc1 for ssDNA by fluorescence polarisation, fold reduction by 400 nM Mei5–Sae3 (ATP, 70 µM Ca2+, 100 mM NaCl) was 2 fold. Also, in experiment [5], the negative-stain EM: average Dmc1 filament length with versus without Mei5–Sae3, ADP as cofactor (compressed filaments) came to 2.3 fold and the negative-stain EM: average Dmc1 filament length with versus without Mei5–Sae3, AMP–PNP as cofactor was 1.5 fold. Besides, in experiment [6], the 3H-ADP retained on Dmc1 filaments (nitrocellulose filter) after adding 0.5, 1 or 2 µM Mei5–Sae3; value at 2 µM amounted to 65%.

The values are drawn from PMC12596195, “Mei5–Sae3 stabilizes both active and inactive forms of Dmc1 filaments independently of its impact on ATP hydrolysis” (Nucleic Acids Research, 2025).
